Source: patent US20180185516A1, “DELIVERY OF TARGET SPECIFIC NUCLEASES” (Sangamo Therapeutics, Inc., priority 2016, published 2018)

Legend:
mouse albumin = assay: Indel analysis (nuclease activity) in livers of mice injected intravenously with ZFN mRNA LNPs; format: in vivo; settings: 48641/31523 mRNA LNP (II-9), single dose 2 mg/kg; FIG. 4B
Protocol: 8-10 week old C57BL6 purchased from Charles River were injected intravenously through the tail vein with 200 uL of an aqueous solution containing diluted LNPs or a mixture of diluted LNPs and AAV donor encoding a human IDS or human FIX transgene containing homology arms flanking the ZFN cut site and a splice acceptor just upstream of the coding sequence of the transgene. Some animals were injected with 5 mg/kg dexamethasone intraperitoneally 30 minutes prior to LNP dosing. Animals were then sacrificed 7 days post LNP dosing or re-dosed with LNPs at either a 7 or 14 day interval before subsequent sacrifice and harvesting of liver tissue. Livers were snap frozen and a small portion of both the left and right lobes were dissected and harvested for gDNA using a FastPrep-24 Homogenizer (MP Biomedicals), Lysis Matrix D solution (MP Biomedicals), and a MasterPure DNA Purification kit (Epicentre).
Primers were designed to amplify approximately 200 bp of total genomic DNA sequence containing the ZFN cut site. Amplicons were then ran on either a Miseq or Nextseq (Illumina) and insertions and deletions (indels) from the wildtype genomic sequence were quantified.
To test the ability of targeted zinc finger nucleases to cleave a site in the mouse genome in vivo, mRNAs encoding albumin specific nucleases were incorporated into LNPs as described above using the cationic lipid I-6. […]

[1] = tested on: ZFN 31523 (mALB) (synthetic); assay: cell_activity; settings: pair with 48641; mouse liver after third 2 mg/kg LNP dose
[2] = tested on: ZFN 48641 (mALB) (synthetic); assay: cell_activity; settings: pair with 31523; mouse liver after third 2 mg/kg LNP dose

Compound: C[C@H]1C[C@@H]2[C@H]([C@@H](O)C[C@@]3(C)[C@H]2CC[C@]3(O)C(=O)COC(=O)CCC(=O)[O-])[C@@]2(C)C=CC(=O)C=C12.[Na+] [Solumedrol®, methylprednisolone sodium succinate]
- nuclease activity, dexamethasone pretreatment vs Solumedrol pretreatment plus 3 days (mouse albumin): slightly more efficacious

Compound: TTTCCTGTAACGATCGGGAACTGGCATC (double strand) [mouse ALB intron 1 right half-site]
- activity [1]: 25 % indels

Compound: CTGAAGGTGGCAATGGTTCCTCTCTGCT (double strand) [mouse ALB intron 1 left half-site]
- activity [2]: 25 % indels
